Test results reported in the RNAGym collection of RNA variant scans (doi:10.1073/pnas.2313332121).
Variants at the floor of the assay were thinned out.

B1: TPR 5TU (parent)
chain: GGAUCUUCUCGAUCUAACAAAAAAGACAAAUCUGCCACAAAGCUUGAGAGCAUCUUCGGAUGCAGAGGCGGCAGCCUUCGGUGGCGCGAUAGCGCCAACGUUCUCAACUAUGACACGCAAAACGCGUGCUCCGUUGAAUGGAGUUUAUCAUG

Variants of: B1
Experiment: polymerase ribozyme fitness, log enrichment relative to wild type (log ratio); higher = more active; in vitro selection for triplet polymerase activity
How it was run: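 Mutant libraries of both subunits of a heterodimeric triplet polymerase ribozyme were PCR-built, transcribed, and selected once in triplicate, with frozen incubation at −7 °C and capture of gel-excised extended constructs on streptavidin beads before RT-PCR. Illumina sequencing of input and output libraries was filtered to genotypes with ≥10 input reads and ≥1 read per output. Fitness is the logarithm of genotype enrichment over wild-type enrichment, using inverse-variance-weighted replicate averages. The logarithm is base 2.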

First: C10U A89U C95U
Second: A12G C38U C57G G62A C93A
The “polymerase ribozyme fitness (log ratio)” value of the first is lower: -4.15 for the first, -2.77 for the second.

First: C10A G48A U56G C79G C96A G143C
Second: G11C C93A
The “polymerase ribozyme fitness (log ratio)” value of the first is lower: at most -4.2 for the first, -3.87 for the second.

C10A U102G U139G A150U U151G and A12G A16G A23U C38U C87U G141C G152A cannot be ordered by “polymerase ribozyme fitness (log ratio)” value: at most -4.2 for the first, at most -4.2 for the second.

Going from G11U G50C A73G to G11C C54U G62A A121U, the “polymerase ribozyme fitness (log ratio)” value rises from at most -4.2 to -2.2.

Compared with A12G G59A A66C C79A C108U C116A, G11C G25C A41C U78A C99G is higher in “polymerase ribozyme fitness (log ratio)” value: at most -4.2 for the first, -4.09 for the second.

A12C A22G C54A G70U G100A C116G G117A U135G and C10U A16U A28G G46A A91G C93A U111G G152U cannot be ordered by “polymerase ribozyme fitness (log ratio)” value: at most -4.2 for the first, at most -4.2 for the second.

C10U A21U C54A U55A C95U U102G A106C G141C and A12C A30C A60G C75G G86U U90G A97C cannot be ordered by “polymerase ribozyme fitness (log ratio)” value: at most -4.2 for the first, at most -4.2 for the second.

C10U A23G U82G C95A and G11U A28G A41U U61G G68A C96U A97C C108U G143U C149A cannot be ordered by “polymerase ribozyme fitness (log ratio)” value: at most -4.2 for the first, at most -4.2 for the second.

G11U A22G U45G U53G G58C C85U C87A C99G A106U G136A A142U and C10G A22G C63U G81U G94C A147G U148A cannot be ordered by “polymerase ribozyme fitness (log ratio)” value: at most -4.2 for the first, at most -4.2 for the second.

C10U G25C G46C G88U C95U A97U A142C and C10U U82A C87G A89U A142U cannot be ordered by “polymerase ribozyme fitness (log ratio)” value: at most -4.2 for the first, at most -4.2 for the second.

A12C G59C C87A A107G A115U A150U and C10U C96G A119U cannot be ordered by “polymerase ribozyme fitness (log ratio)” value: at most -4.2 for the first, at most -4.2 for the second.

First: A12C C85U
Second: C10G A26U C43A G94C U127C G143U
The “polymerase ribozyme fitness (log ratio)” value of the first is higher: -1.44 for the first, at most -4.2 for the second.

A12G U15G A26G C93A A115G and C10G A17U C54G C93U A106C C125A cannot be ordered by “polymerase ribozyme fitness (log ratio)” value: at most -4.2 for the first, at most -4.2 for the second.

Compared with A12G A40G A41C G65A C85U A107G C123G G152A, G11C U31A A40U is higher in “polymerase ribozyme fitness (log ratio)” value: at most -4.2 for the first, -0.204 for the second.

First: C10U C96A C125A
Second: A12G A16G U31A C125A U145C
The “polymerase ribozyme fitness (log ratio)” value of the first is lower: -3.69 for the first, -0.993 for the second.

A12C U15C C35U G58A U90C G126U and A12C C57U C72A C93G U111G U146G cannot be ordered by “polymerase ribozyme fitness (log ratio)” value: at most -4.2 for the first, at most -4.2 for the second.

A12G U33G C36A G86U A110C C118U C123U and A12G U44G A60G G65C C114G cannot be ordered by “polymerase ribozyme fitness (log ratio)” value: at most -4.2 for the first, at most -4.2 for the second.

A12G A39G and A12G A39C are within 0.2 log units of each other in “polymerase ribozyme fitness (log ratio)” value: -1.53 for the first, -1.68 for the second.

C10U A30U U33G C51A A64C A91G C118U U145C and G11C A17U A23U C38U C95U A138G cannot be ordered by “polymerase ribozyme fitness (log ratio)” value: at most -4.2 for the first, at most -4.2 for the second.

Going from G11C A20G A47C to G11A C96U C116U, the “polymerase ribozyme fitness (log ratio)” value rises from -2.54 to -1.68.

G11A C85U U130G and C10U A40C G42C A49G G58U G83C G92A A107C G141C C149G cannot be ordered by “polymerase ribozyme fitness (log ratio)” value: at most -4.2 for the first, at most -4.2 for the second.

C10U C32A C38G C43A G83A A91U C95G A97U U144G and A12C U102C A138C cannot be ordered by “polymerase ribozyme fitness (log ratio)” value: at most -4.2 for the first, at most -4.2 for the second.

Compared with C10G U55A C57A U77G C87G, C10U U13C A52U C96A is higher in “polymerase ribozyme fitness (log ratio)” value: at most -4.2 for the first, -3.64 for the second.

Compared with G11A A17C A20C A22U G46U C85U, G11C A30U U82C is lower in “polymerase ribozyme fitness (log ratio)” value: -3.03 for the first, at most -4.2 for the second.

Compared with G11U A29C C35U U45A A66G A91U, A12G U33A A39C G65A G70C C96G A119U C129A U135G is lower in “polymerase ribozyme fitness (log ratio)” value: -3.98 for the first, at most -4.2 for the second.

A12C A29C G81U C87A and C10U A21G G48A G83C G94U U144A cannot be ordered by “polymerase ribozyme fitness (log ratio)” value: at most -4.2 for the first, at most -4.2 for the second.

Compared with A12G A23G U31A C35U U56A, A12U A19C U82C C129G is higher in “polymerase ribozyme fitness (log ratio)” value: -3.98 for the first, -3.41 for the second.

C10U G46C G124A and C10U A19U C32G G80A G88U A115G U146A cannot be ordered by “polymerase ribozyme fitness (log ratio)” value: at most -4.2 for the first, at most -4.2 for the second.

Compared with A12G A52C G59A, G11U G74A C85A U90C G141A U148C is lower in “polymerase ribozyme fitness (log ratio)” value: -1.78 for the first, at most -4.2 for the second.

G11U A28C A49C C51A U53A C57U C95A G140A and C10G A107C cannot be ordered by “polymerase ribozyme fitness (log ratio)” value: at most -4.2 for the first, at most -4.2 for the second.

First: A12C A19U G80U A89G C96A
Second: A12G A41G
The “polymerase ribozyme fitness (log ratio)” value of the first is lower: at most -4.2 for the first, 0.519 for the second.

Compared with G11A G83A G94U G128U U145G, G11U G84A U144G is higher in “polymerase ribozyme fitness (log ratio)” value: at most -4.2 for the first, 0.53 for the second.

First: A12C U56A G59C C96A U101C
Second: C10G C87A C93U
The “polymerase ribozyme fitness (log ratio)” value of the first is higher: -0.609 for the first, at most -4.2 for the second.

C10G C54A G71A and A12G A23U U56A C93G cannot be ordered by “polymerase ribozyme fitness (log ratio)” value: at most -4.2 for the first, at most -4.2 for the second.

C10G G48A G80A G84A A91C C114U C125U A142C and A12G C27G U55A A110G G143A U145G U148G cannot be ordered by “polymerase ribozyme fitness (log ratio)” value: at most -4.2 for the first, at most -4.2 for the second.

G11C A47U G68C C85A C95A A106G U134C A150G and C10G U77C U90A A119G A137G cannot be ordered by “polymerase ribozyme fitness (log ratio)” value: at most -4.2 for the first, at most -4.2 for the second.

C10G U13G C57U C85U G152C and C10U A29U U53A C79G C85U C95G A107U cannot be ordered by “polymerase ribozyme fitness (log ratio)” value: at most -4.2 for the first, at most -4.2 for the second.

First: G11C C93A C125U
Second: A12G C54U C57A C75U
The “polymerase ribozyme fitness (log ratio)” value of the first is lower: at most -4.2 for the first, -0.0208 for the second.

Going from A12C G58A A66C G88U A110U to G11U C96U A119C, the “polymerase ribozyme fitness (log ratio)” value rises from at most -4.2 to -1.07.

C10U C32G A39U U55A C95G C96A C149U and A12G A37C G86A C95A cannot be ordered by “polymerase ribozyme fitness (log ratio)” value: at most -4.2 for the first, at most -4.2 for the second.

First: C10G A40G A49C U102G G128A
Second: C10U A16U G34U A39G G94A G141C
The “polymerase ribozyme fitness (log ratio)” value of the first is lower: at most -4.2 for the first, -3.56 for the second.

Compared with G11C U56A C75U U145A, A12U A17U C18U G46U C51U A52U C75A G84C G100U C105U C118G A120U U134A A137G is lower in “polymerase ribozyme fitness (log ratio)” value: -1.61 for the first, at most -4.2 for the second.
